The nature of this data set: amyloid nucleation score (Sup35N fusion, yeast selection) (log enrichment); library NNK2; higher = more nucleation; inactive = no reads after selection. In short, it runs like this: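 After 24 hours of induction with 100 μM copper sulfate, psi-negative yeast expressing peptides of 20 random codons fused to Sup35N were grown for 7 days at 30°C on medium lacking adenine and uracil. Input and output plasmid inserts were sequenced with Illumina, and sequences with under 100 input reads were discarded. Scores for nucleation are the DiMSum log enrichment of output over input reads, centred on the mode score of non-aggregating sequences.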

± gives the uncertainty stated by the source.

These results are taken from the supplement of paper PMC12042874.

Take NCPCGHVVRVNNNWRCFSVT: the amyloid nucleation score was 6.933 ± 0.052.

Substance HASNH showed an amyloid nucleation score of -0.689 ± 0.42.

In turn, LTFVCVV displayed an amyloid nucleation score of 0.048 ± 0.33.

In turn, MLKIHFLPLLGQWTLCRNPL registered an amyloid nucleation score of 1.28 ± 0.43.

In the case of LLCYRWGHVN, the amyloid nucleation score came to 0.057 ± 0.76.

With WLVGHKLKYA, the amyloid nucleation score came to 0.113 ± 0.22.

Turning to WSGLFVKKNVVFRVRNGVT, the amyloid nucleation score was -0.089 ± 1.1.

For LPGMNTIILD, the amyloid nucleation score worked out at 2.17 ± 0.081.

Take MSRPSSYS: the amyloid nucleation score result is “inactive”.

With MVMGTYVIVRLYKHKNCNAY, the amyloid nucleation score was -1.36 ± 0.55.

For DLLHETML, the amyloid nucleation score is -0.781 ± 1.1.

YLGRHDYKSVGGSFIPRQSK returned an amyloid nucleation score of -0.661 ± 1.1.

ELLIHDEYDILMCN had an amyloid nucleation score of 0.136 ± 0.36.

As to VAVFLNNA, the amyloid nucleation score result is “inactive”.

Turning to CGRVTTFSLRNVARVCVSAF, the amyloid nucleation score is -0.308 ± 0.25.

On to ISPISEQHMLSLTSYEP, for which the amyloid nucleation score came to 1.74 ± 0.35.

GNGWAMSVTKR registered an amyloid nucleation score of 0.571 ± 0.64.

Turning to GDQIWNYGSLAETVTASTWS, the amyloid nucleation score stood at 0.509 ± 0.21.

NPTLGHKNVFVRYSF returned an amyloid nucleation score of 2.9 ± 0.14.

The substance LELKDNMAFDRSLFLKRHGG returned an amyloid nucleation score of -0.243 ± 0.28.

Substance HWSYKDSLWVLDAAESVNMS gave an amyloid nucleation score of 0.622 ± 0.66.

As for NKVVAFNGLV, the amyloid nucleation score entry is “inactive”.

In turn, MYPSG returned an amyloid nucleation score of 0.321 ± 0.49.

For the substance RPNNLDMVH, the amyloid nucleation score turned out to be 0.619 ± 0.57.

For PRIFFYVNLFLRHWPEIKML, the amyloid nucleation score is -2.08 ± 1.1.

Turning to NLLWYKLNLNTYVACAIKWW, the amyloid nucleation score was found to be 0.198 ± 0.38.

Substance LMIAFKQRFIPS yielded an amyloid nucleation score of 1.12 ± 0.4.

With SIFFNRASCLRRV, the amyloid nucleation score result was “inactive”.

Take TGRITVRRGSHLSLWKSMRL: the amyloid nucleation score stood at 0.697 ± 0.27.

In turn, GCSWEITDVHGGRLKLAMDP had an amyloid nucleation score of 1.12 ± 0.32.

As for CRRGDLKDDEIYAMHLHRVS, the amyloid nucleation score was -1.12 ± 0.78.

ERIFGFI returned an amyloid nucleation score of -1.45 ± 0.55.

With NKVEALLWTKTTLQCSLRSV, the amyloid nucleation score was found to be 4.82 ± 0.059.

Turning to RLAVVLVPRIGYSSKSSETR, the amyloid nucleation score amounted to 1.11 ± 0.34.

SVIKQNC returned an amyloid nucleation score of 0.547 ± 0.47.

Substance RMWDSSCSLRGMRLGVYRAR showed an amyloid nucleation score of 0.396 ± 0.53.

The substance LYVRRYNWSHVGFHFCGLDT showed an amyloid nucleation score of -0.384 ± 0.79.

Turning to AVSFWSIF, the amyloid nucleation score is 0.307 ± 0.64.

The substance SYKGALLSEQIL showed an amyloid nucleation score of 0.114 ± 0.4.

The substance PYQSTCSDRSFYVCVCELHW returned an amyloid nucleation score of 0.241 ± 0.8.

Regarding KVSGRYVEEYDHFPTDLSSL, the amyloid nucleation score was -0.046 ± 0.54.

Take LQSSKVWDFMLGLGVSGRVE: the amyloid nucleation score amounted to 1.55 ± 0.14.

As to SLKEIECFSQ, the amyloid nucleation score entry is “inactive”.

In turn, VYYSGALFQNVLYLLSFMVV had an amyloid nucleation score of -0.501 ± 1.1.

In turn, TYADW came in with an amyloid nucleation score of 0.902 ± 0.3.

With KRNMSCVLYIWDWHPASLLM, the amyloid nucleation score entry was “inactive”.

As for WKSLTGYIRLIFRNFWTSHD, the amyloid nucleation score result was “inactive”.

As for IVDGVYEFKC, the amyloid nucleation score was -0.779 ± 0.32.

Take RFGFRSGPTSSRMWYSFLEF: the amyloid nucleation score worked out at 3.15 ± 0.11.

On to MIRWSRRTCRKGLTECTCST, for which the amyloid nucleation score is 1.52 ± 0.33.

For the substance TDRIDCAFAYDYL, the amyloid nucleation score was -1.08 ± 0.54.

Consider SLQSDQSADFREDKGRSKAE, for which the amyloid nucleation score was 0.898 ± 0.32.

Turning to IDFVVFFT, the amyloid nucleation score is 1.09 ± 0.27.

Regarding MHASGHWYMKRSSLGADSPV, the amyloid nucleation score stood at 0.815 ± 0.18.

Substance SLSRRQLTIPPVTTRVIQSH displayed an amyloid nucleation score of 0.637 ± 0.25.

Consider ESSLDCMRDANNKAAWVEVV, for which the amyloid nucleation score was found to be 1.05 ± 0.23.

VRFQELAR: the amyloid nucleation score is 0.343 ± 0.27.

KWKASVSFFNGHWDGLFANL returned an amyloid nucleation score of 5.07 ± 0.056.

Consider STCLTLSMRLLA, for which the amyloid nucleation score amounted to 3.84 ± 0.078.

With EALMMVYGWEKTD, the amyloid nucleation score is 0.733 ± 0.24.

As for VFCSSRFCIEECGC, the amyloid nucleation score is -0.453 ± 0.64.

Substance MFERW gave an amyloid nucleation score of -0.184 ± 0.56.

For EGRVHTSLLVVCVTHTRKYM, the amyloid nucleation score was -0.688 ± 0.42.

In the case of SARWYILRVFIFFIPRSAYK, the amyloid nucleation score was -1.59 ± 0.76.

With WCCKVTGHFPDTEQYYFPPP, the amyloid nucleation score result is “inactive”.

For NVVKTWPIYIMRPLWTAHSN, the amyloid nucleation score is -0.641 ± 0.31.

Substance VSISKVFAAFVFLEPANTRI had an amyloid nucleation score of 5.36 ± 0.097.

ASSSGPGCSLVSSVHASRQG: the amyloid nucleation score came out at 1.54 ± 0.52.

In turn, ANKSAGVLYNAASDLRVGVR gave an amyloid nucleation score of 0.923 ± 0.55.

ILLMNVNGILSIRVQRRKRV showed an amyloid nucleation score of -0.623 ± 0.79.

As to GVYICQFIAVISLSAQSLWY, the amyloid nucleation score was -0.97 ± 1.1.

For PYSFSV, the amyloid nucleation score entry is “inactive”.

The substance LHCYCDLDDALTNPPAHHSR came in with an amyloid nucleation score of 0.605 ± 0.34.

For KMVYGLQGWLGLGSTVFWSP, the amyloid nucleation score was 3.2 ± 0.13.

Substance PRSYWRSYWAKVLDYQLIPR displayed an amyloid nucleation score of 3.55 ± 0.07.

In turn, YFWTFTSWQTTGRCHSP registered an amyloid nucleation score of 0.521 ± 0.17.

IRVTCLLGL displayed an amyloid nucleation score of -0.055 ± 0.2.

In turn, FKFVYNVKCPYWWTLSFMEV yielded an amyloid nucleation score of 0.75 ± 0.47.

For the substance KAVCGCLLLGFVNFLYPVEV, the amyloid nucleation score is -0.495 ± 0.21.

The substance MNNDSAFIEYTGHQWIWGVR displayed an amyloid nucleation score of 0.269 ± 0.26.

As to AYSSMCSTMRNKCCL, the amyloid nucleation score stood at 0.504 ± 0.6.

The substance CASAFCLTRE returned an amyloid nucleation score of 4.49 ± 0.057.

TIMYYVWCLFFWMCLGYGHS: the amyloid nucleation score amounted to 1.53 ± 0.1.

Take YLCAFVRWWYR: the amyloid nucleation score was -0.029 ± 1.1.

As to DNGNTMDES, the amyloid nucleation score was found to be 0.232 ± 0.55.

RDPVFIT gave an amyloid nucleation score of -1.44 ± 0.76.

NIFMLTLGCGCQAFCSVIMT: the amyloid nucleation score was found to be 1.44 ± 0.17.

For NESSTSQNKGTRTDKGAESL, the amyloid nucleation score came to 0.376 ± 0.33.

Regarding TDYYAMWFHSIGRFSG, the amyloid nucleation score was -1.33 ± 0.38.

With PNWPR, the amyloid nucleation score is 0.512 ± 0.66.

Substance LNGYNYATCVLSPFFNE came in with an amyloid nucleation score of -0.497 ± 0.76.

FVNIFIIHADYVGHRPAELR returned an amyloid nucleation score of 9.092 ± 0.081.

Take LNTLSESLEKNSGTLCWAKR: the amyloid nucleation score entry was “inactive”.

HLNWHLFILGLFGSATGEDI gave an amyloid nucleation score of -1.48 ± 1.1.

TSGRLR displayed an amyloid nucleation score of 1.67 ± 0.38.

The substance VLWCDKWVGNNMKDGELTLW displayed an amyloid nucleation score of 0.446 ± 0.43.

Regarding SNNFFNGMICSLFAGGC, the amyloid nucleation score was determined as 7.55 ± 0.082.

For the substance YGLPYEVLFNHSHTSNRAYS, the amyloid nucleation score is -0.532 ± 0.43.

FVESVSEPALCIFKVSGYCS registered an amyloid nucleation score of -0.685 ± 0.79.

The substance SAMLDRFYGVRFTMFCRAEH yielded an amyloid nucleation score of 0.299 ± 0.61.

The substance CISVPMIFDFTIWA returned an amyloid nucleation score of 6.64 ± 0.071.

In turn, CSRIHIV showed an amyloid nucleation score of -0.255 ± 1.1.

ERIHSSCNYTFAFLLGFMSV had an amyloid nucleation score of 0.053 ± 0.54.

As for EMYFALLVLFVLGGFSM, the amyloid nucleation score is -0.409 ± 0.76.

In turn, SYTSGYLLVYPFVNIVVFYP had an amyloid nucleation score of -1.64 ± 1.1.

In turn, MKFKYTNHVYRIDCRSAT displayed an amyloid nucleation score of 0.551 ± 0.38.

On to INGVPNGYMATLGTTCVKKF, for which the amyloid nucleation score was -1.11 ± 0.4.

The substance KWLND gave an amyloid nucleation score of 0.205 ± 0.41.

For the substance AFDEVSSFGGFFERCFWIKL, the amyloid nucleation score amounted to 5.91 ± 0.076.

Consider AVCTESMLWS, for which the amyloid nucleation score stood at 0.057 ± 0.16.

VKLTLRVLLMSRTETHTVCR gave an amyloid nucleation score of 0.494 ± 0.44.

Regarding TSDITAVFNSFLKFR, the amyloid nucleation score is -0.744 ± 0.74.

Regarding RANGLSFCTSLLLGEYLNNG, the amyloid nucleation score was found to be 2.63 ± 0.078.

As to RDVFTFYNKGEFERCQTLVY, the amyloid nucleation score came to 0.092 ± 1.1.

VDNSLVNMLTAMGWSGFMHT showed an amyloid nucleation score of 0.255 ± 0.49.

Regarding SVSDLLLIYVIESSCSHGFK, the amyloid nucleation score came out at 4.72 ± 0.072.

On to QLMDGSRSLFMALRRRFLLV, for which the amyloid nucleation score was 0.691 ± 0.74.

In turn, DLVNV came in with an amyloid nucleation score of 1.8 ± 0.38.

Turning to ISYKAWMFRGRMNSVGISRY, the amyloid nucleation score was -0.299 ± 0.63.

On to NKRPSRTNLWIKALVRP, for which the amyloid nucleation score result is “inactive”.

The substance ETGCLRARAVATGVLGRREK returned an amyloid nucleation score of 0.171 ± 0.65.

The substance SWRWKATAT displayed an amyloid nucleation score of -1.09 ± 0.45.

GKKTAGDIRCWWRWSLGCSP came in with an amyloid nucleation score of 0.731 ± 0.57.

For NVFKGPVLHGFRDRISWVKD, the amyloid nucleation score result is “inactive”.

Turning to ATARS, the amyloid nucleation score worked out at 0.701 ± 0.29.

In turn, YVDVGC registered an amyloid nucleation score of 0.513 ± 0.52.

In the case of RILLRRAKFGSR, the amyloid nucleation score is 0.432 ± 0.21.

Substance RRLWGIALYRVSLVVFGSLY showed an amyloid nucleation score of -0.354 ± 0.25.

With WTKATPH, the amyloid nucleation score came to 0.12 ± 0.29.

As for IKSVRTWGSLESA, the amyloid nucleation score was -0.073 ± 0.34.

With NDAYITSVVGFTRYMYNFMV, the amyloid nucleation score result was “inactive”.

HFFSSSSMRMYTSYSPLVMW: the amyloid nucleation score turned out to be 0.215 ± 0.42.

Turning to TYGCLFDSSIMSFQLSLDNF, the amyloid nucleation score was -0.28 ± 0.49.

Turning to VVNLDSF, the amyloid nucleation score was -1.95 ± 0.62.

As to NCIRSNDRMMFPLCVTLSCS, the amyloid nucleation score came out at 0.335 ± 0.39.

Turning to VFSTTSLNV, the amyloid nucleation score is -0.647 ± 0.34.

As for IITGLQFLD, the amyloid nucleation score was -0.691 ± 0.79.

For the substance FTLGANLT, the amyloid nucleation score is -0.855 ± 0.76.

YFIAASYCDLTYLKTIDWTG showed an amyloid nucleation score of 2.76 ± 0.067.

In the case of RVDKMMYSRLPCLVAV, the amyloid nucleation score worked out at 0.466 ± 0.49.

Substance THYGLMVCQTPVGRRSASCR gave an amyloid nucleation score of 1.32 ± 0.28.

VLRSVRIFLDN showed an amyloid nucleation score of 1.3 ± 0.15.

With SIFSKYCF, the amyloid nucleation score is -0.464 ± 0.5.
